Here are results for two substances from paper PMC5959011.

Assay [1] addresses smallest capsid protein (SCP) VP26 (herpes simplex virus type 1 (HSV-1), strain KOS) (UniProt P10219). Kind of assay: cryo-EM structure.
For assay [2], the target named is tegument protein pUL25 (herpes simplex virus type 1 (HSV-1), strain KOS) (UniProt P10209). The assay is described as follows: cryo-EM structure.

In the case of “smallest capsid protein (SCP) VP26 (from UniProt P10219 1-112) (natural protein)”, the stoichiometry N in assay [1] was 6.
“tegument protein pUL25 (from UniProt P10209 1-580) (natural protein)” displayed a stoichiometry N in assay [2] of 2.
